Reference: PMC4211656

System: CYT-19
Experiment: ensemble unwinding (CYT-19 concentration dependence)
Settings: kmax 0.86 min-1; functional K1/2 for unwinding; substrate probably -1d,rSA5 = CCCUCdUAAAAA (2'-deoxy at U -1); Ribozyme buffer for complex assembly: 50 mM MOPS pH 7.0, 10 mM MgCl2, 25 C; exact CYT-19/Ded1 assay buffer not in the material

For “L-16/ScaI group I ribozyme with standard 11-bp P1 (ensemble)”, the K half was 5.7 µM.
